# Experimental data published in US20240360228A1 (BIOLEGEND, published 2024).
# Assays:
# [1] = biological target: T1, human CCR8 (human, UniProt P51685 1-355); experiment: flow blocking, PBMC CCR8+CD4+; competitor PE-AB1
# T1 construct: Native CCR8 on human PBMC (CCR8+ CD3+ or CCR8+ CD4+ lymphocytes); also called chemokine (C-C motif) receptor 8
# Description: (§1) For blocking studies, 100 μL of the cell suspension were incubated with 10 μg purified isotype control, AB1, AB2, AB3, AB4, AB5, AB8, AB9, AB10, AB11, AB12, AB13, AB14, AB15, and Commercial ABI antibodies, or isotype control, as blocking agents.
# (§2) After incubation with the blocking agent, the cells were incubated with 0.25 μg of the indicated PE-conjugated antibody plus anti-human CD4 APC or anti-human CD3 for another 15 minutes in the dark and then washed 2 times with Cell Staining Buffer, and acquired in a FACSCanto II flow cytometer (BD Biosciences); the data was analyzed using FCS Express (De Novo Software); MFI correspond to the CCR8+ CD4+ lymphocytes or CCR8+ CD3+ lymphocytes.
# (§3) Percentage original MFI was calculated by dividing the MFI of samples blocked with AB1, AB2, AB3, AB4, AB5, AB6, AB7, AB8, AB9, AB10, AB11, AB12, AB13, AB14, AB15, and Commercial ABI antibodies, by the MFI of samples blocked with the corresponding isotype control. This value was subtracted from 100 to get a blocking percentage. The formula is shown below: […]
# [2] = biological target: T1, human CCR8; experiment: flow blocking, PBMC CCR8+CD4+; competitor PE-433H
# Description: as §1, §2
# [3] = biological target: T1, human CCR8; experiment: flow blocking, PBMC CCR8+CD4+; competitor PE-AB10
# Description: as §1, §2, §3
# [4] = biological target: T1, human CCR8; experiment: flow blocking, PBMC CCR8+CD4+; competitor PE-AB2
# Description: as §1, §2, §3
# [5] = biological target: T1, human CCR8; experiment: flow blocking, PBMC CCR8+CD4+; competitor PE-AB12
# Description: as §1, §2, §3
# [6] = biological target: T1, human CCR8; experiment: flow blocking, PBMC CCR8+CD4+; competitor PE-AB6
# Description: as §1, §2
# [7] = biological target: T1, human CCR8; experiment: flow blocking, PBMC CCR8+CD4+; competitor PE-AB14
# Description: as §1, §2
# [8] = biological target: T1, human CCR8; experiment: flow blocking, PBMC CCR8+CD4+; competitor PE-AB4
# Description: as §1, §2, §3
# [9] = biological target: T1, human CCR8; experiment: flow blocking, PBMC CCR8+CD4+; competitor PE-AB15
# Description: as §1, §2, §3
# [10] = biological target: T1, human CCR8; experiment: flow blocking, PBMC CCR8+CD4+; competitor PE-AB3
# Description: as §1, §2, §3
# [11] = biological target: T1, human CCR8; experiment: flow blocking, PBMC CCR8+CD4+; competitor PE-AB5
# Description: as §1, §2, §3
# [12] = biological target: T1, human CCR8; experiment: flow blocking, PBMC CCR8+CD4+; competitor PE-AB11
# Description: as §1, §2, §3
# [13] = biological target: T1, human CCR8; experiment: flow blocking, PBMC CCR8+CD4+; competitor PE-AB13
# Description: as §1, §2
# [14] = biological target: T1, human CCR8; experiment: flow blocking, PBMC CCR8+CD3+; competitor PE-AB5
# Description: as §1, §2, §3
# [15] = biological target: T1, human CCR8; experiment: flow blocking, PBMC CCR8+CD3+; competitor PE-AB14
# Description: as §1, §2, §3
# [16] = biological target: T1, human CCR8; experiment: flow blocking, PBMC CCR8+CD3+; competitor PE-AB6
# Description: as §1, §2, §3
# [17] = biological target: T1, human CCR8; experiment: flow blocking, PBMC CCR8+CD3+; competitor PE-AB13
# Description: as §1, §2, §3
# [18] = biological target: T1, human CCR8; experiment: flow blocking, PBMC CCR8+CD3+; competitor PE-AB8
# Description: as §1, §2, §3
# [19] = biological target: T1, human CCR8; experiment: flow blocking, PBMC CCR8+CD3+; competitor PE-AB7
# Description: as §1, §2, §3
# [20] = biological target: T1, human CCR8; experiment: flow blocking, PBMC CCR8+CD3+; competitor PE-L263G8
# Description: as §1, §2, §3
# [21] = biological target: T1, human CCR8; experiment: flow blocking, PBMC CCR8+CD3+; competitor PE-AB10
# Description: as §1, §2, §3
# [22] = biological target: T1, human CCR8; experiment: flow blocking, PBMC CCR8+CD3+; competitor PE-433H
# Description: as §1, §2, §3
# [23] = biological target: T1, human CCR8; experiment: flow blocking, PBMC CCR8+CD3+; competitor PE-AB12
# Description: as §1, §2, §3
# [24] = biological target: T1, human CCR8; experiment: flow blocking, PBMC CCR8+CD3+; competitor PE-AB11
# Description: as §1, §2, §3
# [25] = biological target: T1, human CCR8; experiment: flow blocking, PBMC CCR8+CD3+; competitor PE-AB15
# Description: as §1, §2, §3
# T1 sequence (P51685 whole entry): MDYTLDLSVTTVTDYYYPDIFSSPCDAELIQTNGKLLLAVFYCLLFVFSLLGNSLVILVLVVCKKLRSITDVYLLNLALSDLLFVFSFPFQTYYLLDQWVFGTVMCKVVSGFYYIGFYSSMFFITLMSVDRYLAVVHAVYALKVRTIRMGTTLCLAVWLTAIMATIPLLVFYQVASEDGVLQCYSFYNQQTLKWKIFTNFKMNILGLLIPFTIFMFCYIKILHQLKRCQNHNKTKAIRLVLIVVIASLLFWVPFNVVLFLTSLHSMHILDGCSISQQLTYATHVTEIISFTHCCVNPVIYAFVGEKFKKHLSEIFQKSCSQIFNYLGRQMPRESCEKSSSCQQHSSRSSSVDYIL
binder,measurement,setting,value
"AB15 (antibody, V domains shown, Hybridoma monoclonal; Same VH/VL entries as AB14; also called antibody 15; clone 15) VH: EVQLVESGGGLVQPKGSLKLSCAASGFTFNTYAMNWVRQAPGKGLEWVARIRSKSNNYATYYVDSVKDRFTISRDDSQSMLYLQINNLKTEDTAMYYCVRGRELGPYSAMDYWGQGTSVTVSS VL: DIVMTQAAPSVPVTPGESVSISCRSSKSLLHSNGNTYLYWFLQRPGQSPQLLIYRMSNLASGVPDRFSGSGSGTAFTLRISRVEAEDVGLYYCMQHLEYPFTFGGGTKLEIK",% Blocking,[1],-38.7%
same,% Positive cells,[1],2.15%
same,% Blocking,[2],21.6%
same,% Positive cells,[2],1.38%
same,% Blocking,[3],93.2%
same,% Positive cells,[3],0.1%
same,% Blocking,[4],-28.1%
same,% Positive cells,[4],2.1%
same,% Blocking,[5],99.4%
same,% Positive cells,[5],0.01%
same,% Blocking,[6],-23.8%
same,% Positive cells,[6],2.5%
same,% Blocking,[7],99.2%
same,% Positive cells,[7],0.01%
same,% Blocking,[8],-1.69%
same,% Positive cells,[8],1.81%
same,% Blocking,[9],93.8%
same,% Positive cells,[9],0.08%
same,% Blocking,[10],-33.3%
same,% Positive cells,[10],2.28%
same,% Blocking,[11],-17.8%
same,% Positive cells,[11],2.38%
same,% Blocking,[12],85.2%
same,% Positive cells,[12],0.29%
same,% Blocking,[13],91.9%
same,% Positive cells,[13],0.16%
"AB7 (antibody, V domains shown, Hybridoma monoclonal; also called antibody 7; clone 7) VH: AVQLVESGGGLVQPKESLKISCAASGFTFSYAAMYWVRQTPGKGLEWVARIRTKPNNYATYYADSVKGRFTISRDDSKSMVYLQMDNLKSEDTAMYYCNIMGITRGYYFDYWGQGVMVTVSS VL: DIQMTQSPSFLSASVGDRVTINCKASQNINRYLNWYQQQLGEAPKLLIYNANNLQTGIPSRFSGSRSGTDFTLTISSLQPEDVATYFCLQHNSWPWTFGGGTKLELK",% Blocking,[14],-6.64%
same,MFI,[14],1050
same,% Blocking,[15],28.5%
same,MFI,[15],618
same,% Blocking,[16],-23.2%
same,MFI,[16],1140
same,% Blocking,[17],-0.34%
same,MFI,[17],888
same,% Blocking,[18],26.6%
same,MFI,[18],873
same,% Blocking,[19],47.3%
same,MFI,[19],616
same,% Blocking,[20],0.82%
same,MFI,[20],668
same,% Blocking,[21],12.2%
same,MFI,[21],700
same,% Blocking,[22],45.2%
same,MFI,[22],486
same,% Blocking,[23],49.1%
same,MFI,[23],520
same,% Blocking,[24],53.2%
same,MFI,[24],434
same,% Blocking,[25],23.2%
same,MFI,[25],660
"AB2 (antibody, V domains shown, Hybridoma monoclonal; Same VH/VL entries as AB1; also called antibody 2; clone 2) VH: QVQLKESGPGLVKPSETLSLTCTVSGFSLTSYHISWVRQPPGKGLEWMGVIWGDGSKTYNSALKSRLSISRDTSKSQVFLKMRSLKTEDTATYYCARGGDSGFAYWGQGTLVTVSS VL: DIQMTQSPASLSASLEEIVTITCQASQDIGNWLSWYQQKPGKSPQLLIYGTTNLADGVPSRFSGSRSGTQYSLKISRLQVEDIGIYYCLQAYSVPLTFGSGTKLEIK",% Blocking,[1],93.5%
same,% Positive cells,[1],0.1%
same,% Blocking,[2],2.84%
same,% Positive cells,[2],1.71%
same,% Blocking,[3],2.7%
same,% Positive cells,[3],1.44%
same,% Blocking,[4],98.8%
same,% Positive cells,[4],0.02%
same,% Blocking,[5],-8.89%
same,% Positive cells,[5],1.96%
same,% Blocking,[6],93.6%
same,% Positive cells,[6],0.13%
same,% Blocking,[7],-15.4%
same,% Positive cells,[7],1.5%
same,% Blocking,[8],96.6%
same,% Positive cells,[8],0.06%
same,% Blocking,[9],-18.6%
same,% Positive cells,[9],1.53%
same,% Blocking,[10],98.2%
same,% Positive cells,[10],0.03%
same,% Blocking,[11],90.1%
same,% Positive cells,[11],0.2%
same,% Blocking,[12],-3.57%
same,% Positive cells,[12],2.03%
same,% Blocking,[13],-6.06%
same,% Positive cells,[13],2.1%
"AB6 (antibody, V domains shown, Hybridoma monoclonal; Same VH/VL entries as AB5; also called antibody 6; clone 6) VH: QVQLKESGPGLVQPSQTLSLTCTVSGFSLTSYHVSWVRQPPGKGLEWMGVIWTGGSTTYNSLLKSRLSISRDISKSQVFLKMNSLQTEDTATYYCARGGTVVKGGFAYWGQGTLVTVSS VL: DIQMTQSPASLSASLEEIVTITCQASQDIGNRLSWYQQKPGKSPQLLIYGATSLADGVPSRFSGSRSGTQYSLKISRLQVEDIGIYYCLQAYSTPLTFGSGTKLEIK",% Blocking,[14],0.71%
same,MFI,[14],979
same,% Blocking,[15],3.88%
same,MFI,[15],831
same,% Blocking,[16],-4.93%
same,MFI,[16],969
same,% Blocking,[17],2.54%
same,MFI,[17],862
same,% Blocking,[18],33.8%
same,MFI,[18],787
same,% Blocking,[19],32.7%
same,MFI,[19],786
same,% Blocking,[20],-16.3%
same,MFI,[20],783
same,% Blocking,[21],-11.6%
same,MFI,[21],890
same,% Blocking,[22],10.7%
same,MFI,[22],792
same,% Blocking,[23],-3.13%
same,MFI,[23],1050
same,% Blocking,[24],-18.3%
same,MFI,[24],1100
same,% Blocking,[25],13.3%
same,MFI,[25],745
